# Experimental data published in paper PMC3160285, “Fukutin-Related Protein Resides in the Golgi Cisternae of Skeletal Muscle Fibres and Forms Disulfide-Linked Homodimers via an N-Terminal Interaction” (PLoS ONE, 2011).
# Target: FKRP Cys317Ser/Cys318Ser (human) (UniProt Q9H9S5)
# Assay: SDS-PAGE (non-reducing and reducing) with Western blot; cleared COS-7 lysates prepared with 5 mM NEM; untreated or reduced with 330-400 mM DTT at RT for 30 min; 4-12% gel; detection with FKRP207 antibody
row,Molecule,stoichiometry N
1,FKRP Cys317Ser/Cys318Ser (from UniProt Q9H9S5 1-495) (natural protein),2

# Target: the molecule itself
# Assay: as above
row,Molecule,stoichiometry N
1,"FKRP Cys168Ser (natural protein, human, UniProt Q9H9S5 1-495, looked up, fukutin-related protein (FKRP), human, 495 aa, made from pcDNA3.1-FKRP by site-directed mutagenesis; also called FKRP-C168S; source: COS-7, transfected, in lysate (5 mM NEM)) MRLTRCQAALAAAITLNLLVLFYVSWLQHQPRNSRARGPRRASAAGPRVTVLVREFEAFDNAVPELVDSFLQQDPAQPVVVAADTLPYPPLALPRIPNVRLALLQPALDRPAAASRPETYVATEFVALVPDGARAEAPGLLERMVEALRAGSARLVAAPVATANPARSLALNVSLREWTARYGAAPAAPRCDALDGDAVVLLRARDLFNLSAPLARPVGTSLFLQTALRGWAVQLLDLTFAAARQPPLATAHARWKAEREGRARRAALLRALGIRLVSWEGGRLEWFGCNKETTRCFGTVVGDTPAYLYEERWTPPCCLRALRETARYVVGVLEAAGVRYWLEGGSLLGAARHGDIIPWDYDVDLGIYLEDVGNCEQLRGAEAGSVVDERGFVWEKAVEGDFFRVQYSESNHLHVDLWPFYPRNGVMTKDTWLDHRQDVEFPEHFLQPLVPLPFAGFVAQAPNNYRRFLELKFGPGVIENPQYPNPALLSLTGSG",2
2,"FKRP-Asn172Gln/Asn209Gln (natural protein, human, UniProt Q9H9S5 1-495, looked up, fukutin-related protein (FKRP), human, 495 aa, made from pcDNA3.1-FKRP by site-directed mutagenesis; also called double mutant; source: COS-7, transfected, in lysate (5 mM NEM)) MRLTRCQAALAAAITLNLLVLFYVSWLQHQPRNSRARGPRRASAAGPRVTVLVREFEAFDNAVPELVDSFLQQDPAQPVVVAADTLPYPPLALPRIPNVRLALLQPALDRPAAASRPETYVATEFVALVPDGARAEAPGLLERMVEALRAGSARLVAAPVATANPARCLALQVSLREWTARYGAAPAAPRCDALDGDAVVLLRARDLFQLSAPLARPVGTSLFLQTALRGWAVQLLDLTFAAARQPPLATAHARWKAEREGRARRAALLRALGIRLVSWEGGRLEWFGCNKETTRCFGTVVGDTPAYLYEERWTPPCCLRALRETARYVVGVLEAAGVRYWLEGGSLLGAARHGDIIPWDYDVDLGIYLEDVGNCEQLRGAEAGSVVDERGFVWEKAVEGDFFRVQYSESNHLHVDLWPFYPRNGVMTKDTWLDHRQDVEFPEHFLQPLVPLPFAGFVAQAPNNYRRFLELKFGPGVIENPQYPNPALLSLTGSG",2
3,"FKRP Cys296Ser (natural protein, human, UniProt Q9H9S5 1-495, looked up, fukutin-related protein (FKRP), human, 495 aa, made from pcDNA3.1-FKRP by site-directed mutagenesis; also called FKRP-C296S; source: COS-7, transfected, in lysate (5 mM NEM)) MRLTRCQAALAAAITLNLLVLFYVSWLQHQPRNSRARGPRRASAAGPRVTVLVREFEAFDNAVPELVDSFLQQDPAQPVVVAADTLPYPPLALPRIPNVRLALLQPALDRPAAASRPETYVATEFVALVPDGARAEAPGLLERMVEALRAGSARLVAAPVATANPARCLALNVSLREWTARYGAAPAAPRCDALDGDAVVLLRARDLFNLSAPLARPVGTSLFLQTALRGWAVQLLDLTFAAARQPPLATAHARWKAEREGRARRAALLRALGIRLVSWEGGRLEWFGCNKETTRSFGTVVGDTPAYLYEERWTPPCCLRALRETARYVVGVLEAAGVRYWLEGGSLLGAARHGDIIPWDYDVDLGIYLEDVGNCEQLRGAEAGSVVDERGFVWEKAVEGDFFRVQYSESNHLHVDLWPFYPRNGVMTKDTWLDHRQDVEFPEHFLQPLVPLPFAGFVAQAPNNYRRFLELKFGPGVIENPQYPNPALLSLTGSG",2
4,"FKRP-Asn209Gln (natural protein, human, UniProt Q9H9S5 1-495, looked up, fukutin-related protein (FKRP), human, 495 aa, made from pcDNA3.1-FKRP by site-directed mutagenesis; source: COS-7, transfected, in lysate (5 mM NEM)) MRLTRCQAALAAAITLNLLVLFYVSWLQHQPRNSRARGPRRASAAGPRVTVLVREFEAFDNAVPELVDSFLQQDPAQPVVVAADTLPYPPLALPRIPNVRLALLQPALDRPAAASRPETYVATEFVALVPDGARAEAPGLLERMVEALRAGSARLVAAPVATANPARCLALNVSLREWTARYGAAPAAPRCDALDGDAVVLLRARDLFQLSAPLARPVGTSLFLQTALRGWAVQLLDLTFAAARQPPLATAHARWKAEREGRARRAALLRALGIRLVSWEGGRLEWFGCNKETTRCFGTVVGDTPAYLYEERWTPPCCLRALRETARYVVGVLEAAGVRYWLEGGSLLGAARHGDIIPWDYDVDLGIYLEDVGNCEQLRGAEAGSVVDERGFVWEKAVEGDFFRVQYSESNHLHVDLWPFYPRNGVMTKDTWLDHRQDVEFPEHFLQPLVPLPFAGFVAQAPNNYRRFLELKFGPGVIENPQYPNPALLSLTGSG",2
5,"Fukutin-related protein (FKRP), human, wild type, untagged (pcDNA3.1-FKRP) (natural protein, UniProt Q9H9S5 1-495, looked up, N-linked glycans of high mannose and/or hybrid type at Asn172 and Asn209, fukutin-related protein (FKRP), human, 495 aa; Same construct expressed in two cell lines; the assay's format names the cell line; also called hFKRP; full length FKRP; source: COS-7 or BHK-21, transfected (pcDNA3.1-FKRP), in lysate) MRLTRCQAALAAAITLNLLVLFYVSWLQHQPRNSRARGPRRASAAGPRVTVLVREFEAFDNAVPELVDSFLQQDPAQPVVVAADTLPYPPLALPRIPNVRLALLQPALDRPAAASRPETYVATEFVALVPDGARAEAPGLLERMVEALRAGSARLVAAPVATANPARCLALNVSLREWTARYGAAPAAPRCDALDGDAVVLLRARDLFNLSAPLARPVGTSLFLQTALRGWAVQLLDLTFAAARQPPLATAHARWKAEREGRARRAALLRALGIRLVSWEGGRLEWFGCNKETTRCFGTVVGDTPAYLYEERWTPPCCLRALRETARYVVGVLEAAGVRYWLEGGSLLGAARHGDIIPWDYDVDLGIYLEDVGNCEQLRGAEAGSVVDERGFVWEKAVEGDFFRVQYSESNHLHVDLWPFYPRNGVMTKDTWLDHRQDVEFPEHFLQPLVPLPFAGFVAQAPNNYRRFLELKFGPGVIENPQYPNPALLSLTGSG",2
6,"FKRP Cys191Ser (natural protein, human, UniProt Q9H9S5 1-495, looked up, fukutin-related protein (FKRP), human, 495 aa, made from pcDNA3.1-FKRP by site-directed mutagenesis; also called FKRP-C191S; source: COS-7, transfected, in lysate (5 mM NEM)) MRLTRCQAALAAAITLNLLVLFYVSWLQHQPRNSRARGPRRASAAGPRVTVLVREFEAFDNAVPELVDSFLQQDPAQPVVVAADTLPYPPLALPRIPNVRLALLQPALDRPAAASRPETYVATEFVALVPDGARAEAPGLLERMVEALRAGSARLVAAPVATANPARCLALNVSLREWTARYGAAPAAPRSDALDGDAVVLLRARDLFNLSAPLARPVGTSLFLQTALRGWAVQLLDLTFAAARQPPLATAHARWKAEREGRARRAALLRALGIRLVSWEGGRLEWFGCNKETTRCFGTVVGDTPAYLYEERWTPPCCLRALRETARYVVGVLEAAGVRYWLEGGSLLGAARHGDIIPWDYDVDLGIYLEDVGNCEQLRGAEAGSVVDERGFVWEKAVEGDFFRVQYSESNHLHVDLWPFYPRNGVMTKDTWLDHRQDVEFPEHFLQPLVPLPFAGFVAQAPNNYRRFLELKFGPGVIENPQYPNPALLSLTGSG",2
7,"FKRP-Cys289Ser (natural protein, human, UniProt Q9H9S5 1-495, looked up, fukutin-related protein (FKRP), human, 495 aa, made from pcDNA3.1-FKRP by site-directed mutagenesis; also called FKRP-C289S; source: COS-7, transfected, in lysate (5 mM NEM)) MRLTRCQAALAAAITLNLLVLFYVSWLQHQPRNSRARGPRRASAAGPRVTVLVREFEAFDNAVPELVDSFLQQDPAQPVVVAADTLPYPPLALPRIPNVRLALLQPALDRPAAASRPETYVATEFVALVPDGARAEAPGLLERMVEALRAGSARLVAAPVATANPARCLALNVSLREWTARYGAAPAAPRCDALDGDAVVLLRARDLFNLSAPLARPVGTSLFLQTALRGWAVQLLDLTFAAARQPPLATAHARWKAEREGRARRAALLRALGIRLVSWEGGRLEWFGSNKETTRCFGTVVGDTPAYLYEERWTPPCCLRALRETARYVVGVLEAAGVRYWLEGGSLLGAARHGDIIPWDYDVDLGIYLEDVGNCEQLRGAEAGSVVDERGFVWEKAVEGDFFRVQYSESNHLHVDLWPFYPRNGVMTKDTWLDHRQDVEFPEHFLQPLVPLPFAGFVAQAPNNYRRFLELKFGPGVIENPQYPNPALLSLTGSG",2
8,"FKRP-Asn172Gln (natural protein, human, UniProt Q9H9S5 1-495, looked up, fukutin-related protein (FKRP), human, 495 aa, made from pcDNA3.1-FKRP by site-directed mutagenesis; source: COS-7, transfected, in lysate (5 mM NEM)) MRLTRCQAALAAAITLNLLVLFYVSWLQHQPRNSRARGPRRASAAGPRVTVLVREFEAFDNAVPELVDSFLQQDPAQPVVVAADTLPYPPLALPRIPNVRLALLQPALDRPAAASRPETYVATEFVALVPDGARAEAPGLLERMVEALRAGSARLVAAPVATANPARCLALQVSLREWTARYGAAPAAPRCDALDGDAVVLLRARDLFNLSAPLARPVGTSLFLQTALRGWAVQLLDLTFAAARQPPLATAHARWKAEREGRARRAALLRALGIRLVSWEGGRLEWFGCNKETTRCFGTVVGDTPAYLYEERWTPPCCLRALRETARYVVGVLEAAGVRYWLEGGSLLGAARHGDIIPWDYDVDLGIYLEDVGNCEQLRGAEAGSVVDERGFVWEKAVEGDFFRVQYSESNHLHVDLWPFYPRNGVMTKDTWLDHRQDVEFPEHFLQPLVPLPFAGFVAQAPNNYRRFLELKFGPGVIENPQYPNPALLSLTGSG",2
9,"FKRP Cys375Ser (natural protein, human, UniProt Q9H9S5 1-495, looked up, fukutin-related protein (FKRP), human, 495 aa, made from pcDNA3.1-FKRP by site-directed mutagenesis; also called FKRP-C375S; source: COS-7, transfected, in lysate (5 mM NEM)) MRLTRCQAALAAAITLNLLVLFYVSWLQHQPRNSRARGPRRASAAGPRVTVLVREFEAFDNAVPELVDSFLQQDPAQPVVVAADTLPYPPLALPRIPNVRLALLQPALDRPAAASRPETYVATEFVALVPDGARAEAPGLLERMVEALRAGSARLVAAPVATANPARCLALNVSLREWTARYGAAPAAPRCDALDGDAVVLLRARDLFNLSAPLARPVGTSLFLQTALRGWAVQLLDLTFAAARQPPLATAHARWKAEREGRARRAALLRALGIRLVSWEGGRLEWFGCNKETTRCFGTVVGDTPAYLYEERWTPPCCLRALRETARYVVGVLEAAGVRYWLEGGSLLGAARHGDIIPWDYDVDLGIYLEDVGNSEQLRGAEAGSVVDERGFVWEKAVEGDFFRVQYSESNHLHVDLWPFYPRNGVMTKDTWLDHRQDVEFPEHFLQPLVPLPFAGFVAQAPNNYRRFLELKFGPGVIENPQYPNPALLSLTGSG",2
10,"FKRP-282 (C-terminal truncation mutant of FKRP) (domain or fragment, human, UniProt Q9H9S5 1-282, looked up, fukutin-related protein (FKRP), human; C-terminal truncation, last amino acid 282; source: COS-7, transfected, in lysate (5 mM NEM)) MRLTRCQAALAAAITLNLLVLFYVSWLQHQPRNSRARGPRRASAAGPRVTVLVREFEAFDNAVPELVDSFLQQDPAQPVVVAADTLPYPPLALPRIPNVRLALLQPALDRPAAASRPETYVATEFVALVPDGARAEAPGLLERMVEALRAGSARLVAAPVATANPARCLALNVSLREWTARYGAAPAAPRCDALDGDAVVLLRARDLFNLSAPLARPVGTSLFLQTALRGWAVQLLDLTFAAARQPPLATAHARWKAEREGRARRAALLRALGIRLVSWEGG",2
11,"FKRP-157 (C-terminal truncation mutant of FKRP) (domain or fragment, human, UniProt Q9H9S5 1-157, looked up, fukutin-related protein (FKRP), human; source: COS-7, transfected, in lysate (5 mM NEM)) MRLTRCQAALAAAITLNLLVLFYVSWLQHQPRNSRARGPRRASAAGPRVTVLVREFEAFDNAVPELVDSFLQQDPAQPVVVAADTLPYPPLALPRIPNVRLALLQPALDRPAAASRPETYVATEFVALVPDGARAEAPGLLERMVEALRAGSARLVA",2
12,"FKRP-373 (C-terminal truncation mutant of FKRP) (domain or fragment, human, UniProt Q9H9S5 1-373, looked up, fukutin-related protein (FKRP), human; C-terminal truncation, last amino acid 373; source: COS-7, transfected, in lysate (5 mM NEM)) MRLTRCQAALAAAITLNLLVLFYVSWLQHQPRNSRARGPRRASAAGPRVTVLVREFEAFDNAVPELVDSFLQQDPAQPVVVAADTLPYPPLALPRIPNVRLALLQPALDRPAAASRPETYVATEFVALVPDGARAEAPGLLERMVEALRAGSARLVAAPVATANPARCLALNVSLREWTARYGAAPAAPRCDALDGDAVVLLRARDLFNLSAPLARPVGTSLFLQTALRGWAVQLLDLTFAAARQPPLATAHARWKAEREGRARRAALLRALGIRLVSWEGGRLEWFGCNKETTRCFGTVVGDTPAYLYEERWTPPCCLRALRETARYVVGVLEAAGVRYWLEGGSLLGAARHGDIIPWDYDVDLGIYLEDVG",2
